Target: T1, human VEGF-A (human, UniProt P15692-4 27-191)
T1 construct: ELISA methods name 'full-length VEGF165-His protein (R&D Systems)'; Biacore methods name rhVEGF (R&D Systems Cat. No. 293-VE); also called VEGF165; VEGF165-His
Experiment: ELISA and Biacore (SPR), incl. simultaneous binding (bridging ELISA, sandwich SPR)

T1 sequence (P15692 other isoform, or with tags, fused parts or gaps limits assumed): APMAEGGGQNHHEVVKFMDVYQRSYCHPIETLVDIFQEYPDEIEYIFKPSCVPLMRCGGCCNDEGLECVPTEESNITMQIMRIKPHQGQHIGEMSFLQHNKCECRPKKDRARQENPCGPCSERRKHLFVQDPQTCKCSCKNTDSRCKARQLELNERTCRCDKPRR

B1: bispecific, tetravalent antigen binding protein recognizing Ang-2 and VEGF-A (bispecific antibody, human IgG1, kappa)
heavy 1: not shown
light 1: QPGLTQPPSVSVAPGQTARITCGGNNIGSKSVHWYQQKPGQAPVLVVYDDSDRPSGIPERFSGSNSGNTATLTISRVEAGDEADYYCQVWDSSSDHYVFGTGTKVTVLRTVAAPSVFIFPPSDEQLKSGTASVVCLLNNFYPREAKVQWKVDNALQSGNSQESVTEQDSKDSTYSLSSTLTLSKADYEKHKVYACEVTHQGLSSPVTKSFNRGEC
heavy 2: not shown
light 2: DIQMTQSPSSLSASVGDRVTITCSASQDISNYLNWYQQKPGKAPKVLIYFTSSLHSGVPSRFSGSGSGTDFTLTISSLQPEDFATYYCQQYSTVPWTFGQGTKVEIKSSASTKGPSVFPLAPSSKSTSGGTAALGCLVKDYFPEPVTVSWNSGALTSGVHTFPAVLQSSGLYSLSSVVTVPSSSLGTQTYICNVNHKPSNTKVDKKVEPKSC
notes: Expressed transiently in HEK293F cells; also called bispecific tetravalent <VEGF-Ang-2> antibody; <Ang-2, VEGF> bispecific tetravalent antibody
binding result: binds
